Bridge positions count the residues as written; N and C are the ends. Square brackets hold non-standard residues; d marks the D form. Nle = CCCC[C@H](N)C(=O)O; Ahx = NCCCCCC(=O)O; Ava = NCCCCC(=O)O
B1: Ac-Nle-c(Cys-His-D-Phe-Arg-Trp-Apn-Cys)-NH2 (peptide)
peptide: Ac-[Nle]CH[dF]RW[Ava]C-NH2
modifications: disulfide 2-8
SMILES: CCCC[C@H](NC(C)=O)C(=O)N[C@H]1CSSC[C@@H](C(N)=O)NC(=O)CCCCNC(=O)[C@H](Cc2c[nH]c3ccccc23)NC(=O)[C@H](CCCNC(=N)N)NC(=O)[C@@H](Cc2ccccc2)NC(=O)[C@H](Cc2c[nH]cn2)NC1=O

Columns and labels:
hMC1-R [1] = molecular target: T1, hMC1-R (human, UniProt Q01726 1-317); assay: ratio Ki hMC1-R / Ki hMC4-R, same assay
T1 construct: whole, on cells; Assayed as membranes of CHO-K1 cells expressing the receptor; also called hMC-R receptor subtype 1; melanocyte-specific receptor (MC1-R)
Protocol: Cellular membranes used for the in vitro receptor binding assays were obtained from transgenic CHO-K1 cells stably expressing hMC-R receptor subtypes 1, 3, 4 or 5. […] The pellets were resuspended in the same buffer and centrifuged at 50,000 g for 10 minutes at approximately 4° C. The washed pellets containing the cellular membranes were stored at approximately −80° C.
Competitive inhibition of [¹²⁵I](Tyr²)-(Nle⁴-D-Phe⁷)α-MSH ([¹²⁵I]-NDP-α-MSH, Amersham Biosciences®) binding was carried out in polypropylene 96 well plates. Cell membranes (1-10 μg protein/well) prepared as described above were incubated in 50 mM Tris-HCl at pH 7.4 containing 0.2% bovine serum albumin (BSA), 5 mM MgCl₂, 1 mM CaCl₂ and 0.1 mg/mL bacitracin, with increasing concentrations of the test compound and 0.1-0.3 nM […] for approximately 90-120 minutes at approximately 37° C. Bound [¹²⁵I]-NDP-α-MSH ligand was separated from free [¹²⁵I]-NDP-α-MSH by filtration through GF/C glass fiber filter plates (Unifilter®; Packard) presoaked with 0.1% (w/v) polyethylenimine (PEI), using a Packard Filtermate® harvester. Filters were washed three times with 50 mM Tris-HCl at pH 7.4 at a temperature of approximately 0-4° C. and then assayed for radioactivity using a Packard Topcount® scintillation counter. Binding data were analyzed by computer-assisted non-linear regression analysis (XL fit; IDBS).

hMC4-R = molecular target: T2, hMC4-R (human, UniProt P32245 1-332); assay: competition with [125I]-NDP-α-MSH, CHO-K1 membranes
T2 construct: whole, on cells; Assayed as membranes of CHO-K1 cells expressing the receptor; also called hMC-R receptor subtype 4; melanocortin-4 (MC4-R)

hMC1-R [2] = molecular target: T1, hMC1-R; assay: as above
hMC3-R = molecular target: T3, hMC3-R (human, UniProt P41968 1-323); assay: as above
T3 construct: whole, on cells; Assayed as membranes of CHO-K1 cells expressing the receptor; also called hMC-R receptor subtype 3; melacortin-3 (MC3-R)

hMC5-R = molecular target: T4, hMC5-R (human, UniProt P33032 1-325); assay: as above
T4 construct: whole, on cells; Assayed as membranes of CHO-K1 cells expressing the receptor; also called hMC-R receptor subtype 5; melanocortin-5 receptor (MC5-R)
T4 sequence (P33032 whole entry): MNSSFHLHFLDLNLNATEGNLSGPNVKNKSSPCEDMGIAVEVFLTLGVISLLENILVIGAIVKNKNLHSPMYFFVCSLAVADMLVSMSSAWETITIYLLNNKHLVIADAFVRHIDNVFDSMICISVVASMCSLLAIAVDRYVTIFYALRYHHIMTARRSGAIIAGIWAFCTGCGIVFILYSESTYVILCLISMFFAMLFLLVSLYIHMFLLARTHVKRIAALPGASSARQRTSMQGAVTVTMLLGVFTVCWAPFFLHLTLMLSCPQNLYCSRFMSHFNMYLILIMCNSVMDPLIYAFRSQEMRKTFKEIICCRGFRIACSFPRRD

T1 sequence (Q01726 whole entry): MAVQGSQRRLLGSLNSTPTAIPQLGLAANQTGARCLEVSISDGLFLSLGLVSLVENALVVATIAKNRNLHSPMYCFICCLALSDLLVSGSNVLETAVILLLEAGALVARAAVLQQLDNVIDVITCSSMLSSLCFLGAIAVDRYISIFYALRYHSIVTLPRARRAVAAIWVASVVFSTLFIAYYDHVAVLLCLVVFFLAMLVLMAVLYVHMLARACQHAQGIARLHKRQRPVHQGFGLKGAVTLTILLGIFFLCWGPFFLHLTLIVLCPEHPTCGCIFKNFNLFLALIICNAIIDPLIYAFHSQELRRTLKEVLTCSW
T2 sequence (P32245 whole entry): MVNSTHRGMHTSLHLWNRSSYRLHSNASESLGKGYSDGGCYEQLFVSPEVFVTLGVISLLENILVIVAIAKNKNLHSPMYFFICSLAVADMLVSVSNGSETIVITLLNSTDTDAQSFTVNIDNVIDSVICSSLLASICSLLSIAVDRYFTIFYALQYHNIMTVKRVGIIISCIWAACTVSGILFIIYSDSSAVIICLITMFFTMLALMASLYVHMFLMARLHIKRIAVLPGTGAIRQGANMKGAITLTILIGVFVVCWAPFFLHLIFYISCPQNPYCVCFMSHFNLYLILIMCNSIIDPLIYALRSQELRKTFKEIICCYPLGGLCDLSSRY
T3 sequence (P41968 whole entry): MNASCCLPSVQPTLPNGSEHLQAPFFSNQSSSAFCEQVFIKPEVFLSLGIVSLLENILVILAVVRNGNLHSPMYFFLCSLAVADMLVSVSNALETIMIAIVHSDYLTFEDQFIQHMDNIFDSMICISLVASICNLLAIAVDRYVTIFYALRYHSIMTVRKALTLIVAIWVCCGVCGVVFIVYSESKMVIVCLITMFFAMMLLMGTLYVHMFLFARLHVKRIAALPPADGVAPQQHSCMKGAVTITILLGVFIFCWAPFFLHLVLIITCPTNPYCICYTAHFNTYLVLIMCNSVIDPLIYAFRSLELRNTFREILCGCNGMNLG

Row | Binder | Ki hMC1-R/MC4-R (hMC1-R [1]) | Ki (hMC4-R) | Ki (hMC1-R [2]) | Ki (hMC3-R) | Ki (hMC5-R)
1 | Ac-[Nle]CH[dF]RW[Ahx]C-NH2 (disulfide 2-8) [Ac-Nle-c(Cys-His-D-Phe-Arg-Trp-Ahx-Cys)-NH2] | 0.11 | 1.23 nM | 0.0132 nM | 16.1 nM | 0.359 nM
2 | B1 | 0.11 | 0.894 nM | 0.0951 nM | 9.33 nM | 13.4 nM

Source: patent US20120135923A1 (IPSEN PHARMA S A S, published 2012)
